Here are results for two molecules from publication doi:10.1101/758714 (bioRxiv, 2019).

Test [1] concerns the target CRY1 photolyase homology region (PHR), residues 1-491 (human) (UniProt Q16526). Put plainly: fluorescence polarisation. On the technique in general: Fluorescence polarisation rises when a labelled molecule tumbles more slowly, as on binding a larger partner.
In test [2] the target is T1, CRY1 photolyase homology region (PHR), residues 1-491 (human, UniProt Q16526 1-491).
T1 sequence (looked up): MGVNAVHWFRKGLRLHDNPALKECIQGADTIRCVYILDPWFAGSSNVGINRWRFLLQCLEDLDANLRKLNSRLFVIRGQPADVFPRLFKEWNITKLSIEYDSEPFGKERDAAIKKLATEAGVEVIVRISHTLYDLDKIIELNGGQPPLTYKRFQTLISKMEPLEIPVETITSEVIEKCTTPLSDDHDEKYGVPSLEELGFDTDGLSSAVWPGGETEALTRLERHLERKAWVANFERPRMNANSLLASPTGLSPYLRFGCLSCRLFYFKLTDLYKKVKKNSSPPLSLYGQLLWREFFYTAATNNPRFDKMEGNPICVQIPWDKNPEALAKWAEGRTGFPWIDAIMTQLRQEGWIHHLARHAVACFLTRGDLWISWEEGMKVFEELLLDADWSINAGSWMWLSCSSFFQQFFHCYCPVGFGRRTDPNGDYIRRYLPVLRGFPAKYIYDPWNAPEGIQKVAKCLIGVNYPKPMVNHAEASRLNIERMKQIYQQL
Description: fluorescence polarisation.

Consider “Δ11 version of the human CRY1 tail (from UniProt Q16526 492-586) (domain or fragment)”, for which the fold lower affinity than the hCRY1 tail in test [1] was 4 fold.

B1: human CRY1 tail (residues 492-586) (domain or fragment, UniProt Q16526 492-586, looked up)
chain: SRYRGLGLLASVPSNPNGNGGFMGYSAENIPGCSSSGSCSQGSGILHYAHGDSQQTHLLKQGRSSMGTGLSGGKRPSQEEDTQSIGPKVQRQSTN
modifications: fluorescein (FAM) on the N-terminus in the FP binding assays
Broadly, the Kd is the equilibrium constant for the complex coming apart. Turning to B1, the Kd in test [2] is roughly 5 µM.
